Assay results reported in patent US10532083B2, “Methods for inducing differentiation or conversion of white adipocytes and/or preadipocytes to brown adipocites using FGF8” (Technische Universität München, priority 2014, dated 2020).

Key:
[1] = tested on: visceral, epididymal white adipocytes; experiment: Ucp1 / brown adipocyte marker mRNA (qPCR) in immortalized epididymal white adipocytes treated with FGFs; type: cell-based, murine; conditions: epididymal adipocytes; six days of differentiation; FGF8a, b, e, f 25.0 ng/ml, FGF17 10.0 ng/ml
Description: (§1) Screening paracrine FGFs for a browning potential. A, B—Screening of all paracrine FGFs in immortalized white adipocytes. Subcutaneous, inguinal and visceral, epididymal white adipocytes were grown to confluence in Dulbecco's modified Eagle's medium with 4.5 g/l glucose, supplemented with 20 nmol/l insulin, 1 nmol/l triiodothyronine, 20% fetal bovine serum, and penicillin/streptomycin. Upon reaching confluence, differentiation was induced with 500 mmol/l isobutylmethylxanthine, 250 mmol/l indomethacine, and 2 mg/ml dexamethasone for 24 hours. Subsequently, members of the paracrine FGF protein family were added to the medium for the following six days. The medium and the FGF indicated were changed every 48 hours. Untreated cells served as a negative control. At the end of the differentiation process total RNA was isolated using TRIzol reagents, RNA quality and concentration was measured by photometric analysis, and 5 μg of total RNA was reverse-transcribed to cDNA. Finally, quantitative analysis of UCP-1 mRNA expression was performed. A bar graph analysis including the SEM of 3 to 6 independent experiments is shown. […] B—Four different splicing forms of the Fgf8 gene were compared by quantifying Ucp1 mRNA expression in fully differentiated white adipocytes. UCP-1 mRNA abundance is shown in percent of the FGF8b value. Fgf8b and Fgf8f were able to increase expression in epididymal adipocytes. C—Illustration depicting the different exon usage that characterizes the FGF8 spliceforms a, b, e, and f.
(§2) Dose dependency of Ffg8b action. A, B—Subcutaneous, inguinal and visceral, epididymal white adipocytes were grown to confluence in Dulbecco's modified Eagle's medium with 4.5 g/l glucose, supplemented with 20 nmol/l insulin, 1 nmol/l triiodothyronine, 20% fetal bovine serum, and penicillin/streptomycin. Upon reaching confluence, differentiation was induced with 500 mmol/l isobutylmethylxanthine, 250 mmol/l indomethacine, and 2 mg/ml dexamethasone for 24 hours. Subsequently, FGF8b in five indicated concentrations were added to the medium for the following six days. The medium and the FGF8b were changed every 48 hours. Untreated cells served as a negative control. At the end of the differentiation process total RNA was isolated using TRIzol reagents, RNA quality and concentration was measured by photometric analysis, and 5 μg of total RNA was reverse-transcribed to cDNA. Finally, quantitative analysis of UCP-1 mRNA expression was performed. FGF8b induces Ucp1 mRNA abundance in inguinal and epididymal adipocytes. Epididymal fat cells were more dose dependently responsive to Fgf8b treatment as compared to inguinal cells. The latter were responsive to FGF8b treatment above the threshold indicated. B—The absolute increase of several genes typical for brown fat cells.
(§3) Treatment timecourse experiment. A, B—Subcutaneous, inguinal and visceral, epididymal white adipocytes were grown to confluence (prolif. denotes proliferation period) in Dulbecco's modified Eagle's medium with 4.5 g/l glucose, supplemented with 20 nmol/l insulin, 1 nmol/l triiodothyronine, 20% fetal bovine serum, and penicillin/streptomycin. Upon reaching confluence, differentiation was induced with 500 mmol/l isobutylmethylxanthine, 250 mmol/l indomethacine, and 2 mg/ml dexamethasone for 24 hours (induction). Subsequently, the cells were cultured for another six days (differentiation). At the end of the differentiation process total RNA was isolated using TRIzol reagents, RNA quality and concentration was measured by photometric analysis, and 5 μg of total RNA was reverse-transcribed to cDNA. Finally, quantitative analysis of UCP-1 mRNA expression was performed. Untreated cells served as a negative control. A bar graph analysis including the SEM of 5 independent experiments is shown. A—Epididymal fat cells were treated with FGF8b during different time windows as given by black squares indicating one day of treatment each. […]

[2] = tested on: subcutaneous, inguinal white adipocytes; experiment: Ucp1 / brown adipocyte marker mRNA (qPCR) in immortalized inguinal white adipocytes treated with FGFs; type: cell-based, murine; conditions: inguinal adipocytes; six days of differentiation; FGF8a, b, e, f 25.0 ng/ml, FGF17 10.0 ng/ml
Description: as §1, §2, §3

[3] = tested on: subcutaneous white adipose tissue; conditions: cited from earlier work

B1: FGF17: human recombinant fibroblast growth factor 17 (PeproTech), FGF8 subfamily; SEQ ID NO:23 (protein)
chain: MGAARLLPNLTLCLQLLILCCQTQGENHPSPNFNQYVRDQGAMTDQLSRRQIREYQLYSRTSGKHVQVTGRRISATAEDGNKFAKLIVETDTFGSRVRIKGAESEKYICMNKRGKLIGKPSGKSKDCVFTEIVLENNYTAFQNARHEGWFMAFTRQGRPRQASRSRQNQREAHFIKRLYQGQLPFPNHAEKQKQFEFVGSAPTRRTKRTRRPQPLT
modifications: human FGF17
For B1, the “Induction of Ucp1 mRNA expression (browning potential), screening of paracrine FGFs and FGF8 spliceforms” value (from here on “Induction of Ucp1 mRNA expression”) [1] was “increased expression of Ucp1 mRNA expression” and the “Induction of Ucp1 mRNA expression” value [2] was “strongly induce Ucp1 mRNA expression”.

B2: FGF8f: human recombinant FGF8 spliceform f (R&D Systems); SEQ ID NO:18 (protein)
chain: MGSPRSALSCLLLHLLVLCLQAQEGPGRGPALGRELASLFRAGREPQGVSQQVTVQSSPNFTQHVREQSLVTDQLSRRLIRTYQLYSRTSGKHVQVLANKRINAMAEDGDPFAKLIVETDTFGSRVRVRGAETGLYICMNKKGKLIAKSNGKGKDCVFTEIVLENNYTALQNAKYEGWYMAFTRKGRPRKGSKTRQHQREVHFMKRLPRGHHTTEQSLRFEFLNYPPFTRSLRGSQRTWAPEPR
modifications: human FGF8f
In the case of B2, the “Induction of Ucp1 mRNA expression” value [1] is reported as “effective” and the “Induction of Ucp1 mRNA expression” value [2] is reported as “only effective in inducing Ucp1 expression in adipocytes of epididymal adipocytes”.

B3: FGF21: endocrine fibroblast growth factor 21, prior-art browning factor (Fisher et al. 2012) (protein, UniProt Q9NSA1 29-209, looked up)
Fibroblast growth factor 21: HPIPDSSPLLQFGGQVRQRYLYTDDAQQTEAHLEIREDGTVGGAADQSPESLLQLKALKPGVIQILGVKTSRFLCQRPDGALYGSLHFDPEACSFRELLLEDGYNVYQSEAHGLPLHLPGNKSPHRDPAPRGPARFLPLPGLPPALPEPPGILAPQPPDVGSSDPLSMVGPSQGRSPSYAS
In the case of B3, the “Appearance of brown-like adipocytes” value [3] is listed as “increases the appearance of brown-like adipocytes”.

B4: FGF8e: human recombinant FGF8 spliceform e (R&D Systems); SEQ ID NO:17 (protein)
chain: MGSPRSALSCLLLHLLVLCLQAQEGPGRGPALGRELASLFRAGREPQGVSQQHVREQSLVTDQLSRRLIRTYQLYSRTSGKHVQVLANKRINAMAEDGDPFAKLIVETDTFGSRVRVRGAETGLYICMNKKGKLIAKSNGKGKDCVFTEIVLENNYTALQNAKYEGWYMAFTRKGRPRKGSKTRQHQREVHFMKRLPRGHHTTEQSLRFEFLNYPPFTRSLRGSQRTWAPEPR
modifications: human FGF8e
With B4 the “Induction of Ucp1 mRNA expression” value [1] was “did not induce Ucp1 mRNA expression” and the “Induction of Ucp1 mRNA expression” value [2] was “did not induce Ucp1 mRNA expression”.

B5: FGF8a: human recombinant FGF8 spliceform a (R&D Systems); SEQ ID NO:15 (protein)
chain: MGSPRSALSCLLLHLLVLCLQAQHVREQSLVTDQLSRRLIRTYQLYSRTSGKHVQVLANKRINAMAEDGDPFAKLIVETDTFGSRVRVRGAETGLYICMNKKGKLIAKSNGKGKDCVFTEIVLENNYTALQNAKYEGWYMAFTRKGRPRKGSKTRQHQREVHFMKRLPRGHHTTEQSLRFEFLNYPPFTRSLRGSQRTWAPEPR
modifications: human FGF8a
With B5 the “Induction of Ucp1 mRNA expression” value [1] was “did not induce Ucp1 mRNA expression” and the “Induction of Ucp1 mRNA expression” value [2] was “did not induce Ucp1 mRNA expression”.
